Assay results as given in patent US20150355184A1 (Merck Sharp & Dohme, published 2015).
Changes are numbered by the printed parent chain. Numbers in names are those of the source. Each block holds one binder with its values, some of them ahead of it.

How the values were obtained:
mouse PD-L1 = molecular target: T1, mouse PD-L1 (mouse, UniProt Q9EP73 19-238, limits assumed); test: ELISA similar to the cell-based ELISA
T1 construct: Tested in 'a similar ELISA experiment'

[1] = molecular target: T2, human PD-L1 expressed on cells (hPD-L1-CHOK1 / human PD-L1-CHO transfectants, LOX melanoma cells, human … (human, UniProt Q9NZQ7 19-290)); test: flow cytometry on hPD-L1 positive LOX melanoma cells, 1 microgram/ml antibody, against isotype control mouse antibody
T2 construct: Cell surface PD-L1 on transfected CHO cells, on LOX melanoma cells or in FFPE tissue and cell pellets; also called human Programmed Death Ligand 1; mature PD-L1
Source text: Another experiment assessed the binding specificity of 20C3 and 22C3 for hPD-L1-expressing cells. HT144 cells which were known to be negative for expression of hPD-L1 by mRNA analysis (qPCR) and LOX melanoma cells known to express high levels of hPD-L1 mRNA (qPCR) were stained with 1 microgram/ml of purified mouse IgG from seven hybridomas generated in the experiments described in Example 1 above. An irrelevant isotype control mouse antibody was also used at the identical concentration. A fluorescent-labeled anti-mouse secondary antibody was used to detect the primary mouse antibodies. After staining and repeated washing, the cells were analyzed by flow cytometry, with median fluorescent intensities calculated for the population (>10,000 events collected).
20C3 and 22C3 as well as other hPD-L1 antibodies were employed as flow cytometric reagents to detect cell surface hPD-L1. The significant right shift of both the 20C3 and 22C3 histogram curves (FIG. 6A) as compared to the isotype control antibody curve reflects selective detection of hPD-L1 on the hPD-L1-positive LOX melanoma cell line.

T1 sequence (Q9EP73 19-238 limits assumed): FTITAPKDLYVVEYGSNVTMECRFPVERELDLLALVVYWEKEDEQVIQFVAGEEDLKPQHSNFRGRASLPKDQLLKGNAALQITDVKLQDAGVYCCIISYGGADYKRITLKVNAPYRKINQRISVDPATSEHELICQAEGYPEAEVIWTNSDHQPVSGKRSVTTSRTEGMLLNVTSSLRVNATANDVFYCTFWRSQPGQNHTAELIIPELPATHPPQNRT
T2 sequence (Q9NZQ7 19-290 limits assumed): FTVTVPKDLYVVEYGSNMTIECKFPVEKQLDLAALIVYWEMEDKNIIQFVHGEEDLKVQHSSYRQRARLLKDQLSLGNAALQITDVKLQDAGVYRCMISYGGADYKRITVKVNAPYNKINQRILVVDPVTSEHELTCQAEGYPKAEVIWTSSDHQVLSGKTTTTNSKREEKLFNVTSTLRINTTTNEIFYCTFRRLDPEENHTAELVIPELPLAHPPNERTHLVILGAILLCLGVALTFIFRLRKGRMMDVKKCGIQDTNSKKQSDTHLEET

binding result (mouse PD-L1): no binding
fold increase in MFI compared to isotype [1]: ≥ 10 fold
B1: Monoclonal Antibody MEB037.20C3 (antibody, mouse IgG1, V domains shown)
VH: QVQVQQSGAELAEPGASVKMSCKASGYIFTSYWMHWLKQRPGQGLEWIGYINPSSDYNEYSEKFMDKATLTADKASTTAYMQLISLTSEDSAVYYCARSGWLVHGDYYFDYWGQGTTLTVSS
VL: DIVMSQSPSSLAVSAGEKVTMSCKSSQSLLNSRTRKNYLAWYQQKPGQSPKLLIYWASTRESGVPDRFTGSGSGTDFTLTISSVQAEDLAVYYCQQSYDVVTFGAGTKLELK
notes: Mouse IgG1 from hybridoma; also called antibody 20C3; antibody produced by hybridoma subclone MEB037.20C3.116

binding result (mouse PD-L1): no binding
fold increase in MFI compared to isotype [1]: ≥ 10 fold
B2: Monoclonal Antibody MEB037.22C3 (antibody, V domains shown)
VH: QVHLQQSGAELAKPGASVKMSCKASGYTFTSYWIHWIKQRPGQGLEWIGYINPSSGYHEYNQKFIDKATLTADRSSSTAYMHLTSLTSEDSAVYYCARSGWLIHGDYYFDFWGQGTTLTVSS
VL: B1 VL with S22T, N31H, S32T, R33S, Q95K
modifications: N-terminal residue of the mature heavy chain is either glutamine or pyro-glutamate (pE)
notes: Mouse IgG1 from hybridoma (allotype S414R of a mouse IgG1); also called antibody 22C3; antibody produced by hybridoma subclone MEB037.22C3.138
